Assay results as given in patent publication US20230270892A1, “CHELATOR COMPOSITIONS FOR RADIOMETALS AND METHODS OF USING SAME” (TRIUMF INC., priority 2020, published 2023).

How the values were obtained:
[1] = in vivo; parameters: species or system mice; details: mouse, iv, total radioactivity
Method: (§1) At the day of biodistribution mice were injected in the tail vein with ~20 kBq of ^225Accrown-αMSH (range: 10.8-31.6 kBq). […] Blood was collected by cardiac puncture and a full biodistribution performed. Organs were cleaned from blood, weighed and the activity determined using a calibrated gamma counter (Packard Cobra II Auto-gamma counter, Perkin Elmer, Waltham, MA, USA) using three energy windows: 60-120 keV (window A), 180-260 keV (window B), and 400-480 keV (window C). Counting was performed after 6 hours post-sacrifice to ensure equilibrium of the ^225Ac decay chain. Counts were decay corrected from the time of sacrifice and total organ weights were used for the calculation of injected dose per gram of tissue (% ID/g). No differences were noted between the data calculated by three different windows; therefore, the biodistributions are reported using the data acquired using window A. The biological distribution of ^225Ac-crown-TATE was examined by the inventors following similar protocols as described above for Example 5.1.

[2] = tested on: mice bearing B16F10 tumors; assay: in vivo; details: mouse
Method: as §1, with “A similar study to Example 5.1 was conducted using ^213Bi instead” for “The biological distribution”, “^225Ac.” for “^225Ac-crown-TATE was examined by the inventors following similar protocols as described above for Example 5.1.”

[3] = in vivo; parameters: species or system mice; details: mouse, iv, total radioactivity; remark: listed apart in the source
Method: as §1, with “A similar study to Example 5.1 was conducted using ^213Bi instead” for “The biological distribution”, “^225Ac.” for “^225Ac-crown-TATE was examined by the inventors following similar protocols as described above for Example 5.1.”

[4] = Stability of ^225Ac-labelled crown complex left at ambient temperature; format: physicochemical; details: up to 5 days and up to 8 days in a second experiment
Method: The reaction was largely complete after 10 min. […] To obtain the data shown in FIG. 14, labeling with crown was conducted at room temperature for a period of 15 minutes, while labelling with DOTA was conducted at 90° C. for a period of 15 minutes.

Q: Which results are given for `C[C@@H](O)[C@H](NC(=O)[C@@H]1CSSC[C@H](NC(=O)[C@@H](Cc2ccccc2)NC(=O)CN2CCOCCN(CC(=O)O)CCN(CC(=O)O)CCOCCN(CC(=O)O)CC2)C(=O)N[C@@H](Cc2ccc(O)cc2)C(=O)N[C@H](Cc2c[nH]c3ccccc23)C(=O)N[C@@H](CCCCN)C(=O)N[C@@H]([C@@H](C)O)C(=O)N1)C(=O)O` [^225Ac-crown-TATE, metal not drawn]?
A: tissue uptake at 1 h ([1]; Biodistribution: Andrenals): 1.34 %ID/g; tissue uptake at 4 h ([1]; Biodistribution: Andrenals): 1.37 %ID/g; tissue uptake at 24 h ([1]; Biodistribution: Andrenals): 1.77 %ID/g; tissue uptake at 72 h ([1]; Biodistribution: Andrenals): 1.37 %ID/g; tissue uptake at 1 h ([1]; Biodistribution: Bladder): 7.09 %ID/g; tissue uptake at 4 h ([1]; Biodistribution: Bladder): 1.04 %ID/g; tissue uptake at 24 h ([1]; Biodistribution: Bladder): 0.33 %ID/g; tissue uptake at 72 h ([1]; Biodistribution: Bladder): 0.37 %ID/g; tissue uptake at 1 h ([1]; Biodistribution: Blood): 0.54 %ID/g; tissue uptake at 4 h ([1]; Biodistribution: Blood): 0.09 %ID/g; tissue uptake at 24 h ([1]; Biodistribution: Blood): 0.03 %ID/g; tissue uptake at 72 h ([1]; Biodistribution: Blood): 0.02 %ID/g; tissue uptake at 1 h ([1]; Biodistribution: Bone): 0.35 %ID/g; tissue uptake at 4 h ([1]; Biodistribution: Bone): 0.78 %ID/g; tissue uptake at 24 h ([1]; Biodistribution: Bone): 0.38 %ID/g; tissue uptake at 72 h ([1]; Biodistribution: Bone): 0.78 %ID/g; tissue uptake at 1 h ([1]; Biodistribution: Brain): 0.03 %ID/g; tissue uptake at 4 h ([1]; Biodistribution: Brain): 0.01 %ID/g; tissue uptake at 24 h ([1]; Biodistribution: Brain): 0.01 %ID/g; tissue uptake at 72 h ([1]; Biodistribution: Brain): 0.01 %ID/g; excreta dose per gram or mL at 1 h ([1]; Biodistribution: Feces): 0.22 %ID/g; excreta dose per gram or mL at 4 h ([1]; Biodistribution: Feces): 0.27 %ID/g; excreta dose per gram or mL at 24 h ([1]; Biodistribution: Feces): 0.53 %ID/g; excreta dose per gram or mL at 72 h ([1]; Biodistribution: Feces): 0.26 %ID/g; tissue uptake at 1 h ([1]; Biodistribution: Gallbladder): 0.68 %ID/g; tissue uptake at 4 h ([1]; Biodistribution: Gallbladder): 0.52 %ID/g; tissue uptake at 24 h ([1]; Biodistribution: Gallbladder): 0.99 %ID/g; tissue uptake at 72 h ([1]; Biodistribution: Gallbladder): 1.25 %ID/g; tissue uptake at 1 h ([1]; Biodistribution: Heart): 0.32 %ID/g; tissue uptake at 4 h ([1]; Biodistribution: Heart): 0.15 %ID/g; tissue uptake at 24 h ([1]; Biodistribution: Heart): 0.18 %ID/g; tissue uptake at 72 h ([1]; Biodistribution: Heart): 0.19 %ID/g; tissue uptake at 1 h ([1]; Biodistribution: Kidneys): 20 %ID/g; tissue uptake at 4 h ([1]; Biodistribution: Kidneys): 20.7 %ID/g; tissue uptake at 24 h ([1]; Biodistribution: Kidneys): 11.5 %ID/g; tissue uptake at 72 h ([1]; Biodistribution: Kidneys): 7.09 %ID/g; tissue uptake at 1 h ([1]; Biodistribution: Lg Intestine): 1.55 %ID/g; tissue uptake at 4 h ([1]; Biodistribution: Lg Intestine): 1.58 %ID/g; tissue uptake at 24 h ([1]; Biodistribution: Lg Intestine): 1.31 %ID/g; tissue uptake at 72 h ([1]; Biodistribution: Lg Intestine): 1.02 %ID/g; tissue uptake at 1 h ([1]; Biodistribution: Liver): 1.38 %ID/g; tissue uptake at 4 h ([1]; Biodistribution: Liver): 1 %ID/g; tissue uptake at 24 h ([1]; Biodistribution: Liver): 1.77 %ID/g; tissue uptake at 72 h ([1]; Biodistribution: Liver): 2.43 %ID/g; tissue uptake at 1 h ([1]; Biodistribution: Lungs): 3.4 %ID/g; tissue uptake at 4 h ([1]; Biodistribution: Lungs): 3.37 %ID/g; tissue uptake at 24 h ([1]; Biodistribution: Lungs): 2.31 %ID/g; tissue uptake at 72 h ([1]; Biodistribution: Lungs): 2 %ID/g; tissue uptake at 1 h ([1]; Biodistribution: Muscle): 0.1 %ID/g; tissue uptake at 4 h ([1]; Biodistribution: Muscle): 0.02 %ID/g; tissue uptake at 24 h ([1]; Biodistribution: Muscle): 0.02 %ID/g; tissue uptake at 72 h ([1]; Biodistribution: Muscle): 0.04 %ID/g; tissue uptake at 1 h ([1]; Biodistribution: Pancreas): 4.39 %ID/g; tissue uptake at 4 h ([1]; Biodistribution: Pancreas): 3.24 %ID/g; tissue uptake at 24 h ([1]; Biodistribution: Pancreas): 1.22 %ID/g; tissue uptake at 72 h ([1]; Biodistribution: Pancreas): 1.07 %ID/g; tissue uptake at 1 h ([1]; Biodistribution: Sm Intestine): 0.88 %ID/g; tissue uptake at 4 h ([1]; Biodistribution: Sm Intestine): 0.74 %ID/g; tissue uptake at 24 h ([1]; Biodistribution: Sm Intestine): 0.51 %ID/g; tissue uptake at 72 h ([1]; Biodistribution: Sm Intestine): 0.49 %ID/g; tissue uptake at 1 h ([1]; Biodistribution: Spleen): 0.48 %ID/g; tissue uptake at 4 h ([1]; Biodistribution: Spleen): 0.36 %ID/g; tissue uptake at 24 h ([1]; Biodistribution: Spleen): 0.23 %ID/g; tissue uptake at 72 h ([1]; Biodistribution: Spleen): 0.35 %ID/g; tissue uptake at 1 h ([1]; Biodistribution: Stomach): 5.04 %ID/g; tissue uptake at 4 h ([1]; Biodistribution: Stomach): 3.7 %ID/g; tissue uptake at 24 h ([1]; Biodistribution: Stomach): 2.75 %ID/g; tissue uptake at 72 h ([1]; Biodistribution: Stomach): 2.25 %ID/g; tissue uptake at 1 h ([1]; Biodistribution: Tail): 1.56 %ID/g; tissue uptake at 4 h ([1]; Biodistribution: Tail): 0.42 %ID/g; tissue uptake at 24 h ([1]; Biodistribution: Tail): 0.35 %ID/g; tissue uptake at 72 h ([1]; Biodistribution: Tail): 0.34 %ID/g; tissue uptake at 1 h ([1]; Biodistribution: Tumour): 5.86 %ID/g; tissue uptake at 4 h ([1]; Biodistribution: Tumour): 5.15 %ID/g; tissue uptake at 24 h ([1]; Biodistribution: Tumour): 5.7 %ID/g; tissue uptake at 72 h ([1]; Biodistribution: Tumour): 4.97 %ID/g; excreta dose per gram or mL at 1 h ([1]; Biodistribution: Urine): 108 %ID/g; excreta dose per gram or mL at 4 h ([1]; Biodistribution: Urine): 13.2 %ID/g; excreta dose per gram or mL at 24 h ([1]; Biodistribution: Urine): 0.87 %ID/g; excreta dose per gram or mL at 72 h ([1]; Biodistribution: Urine): 0.2 %ID/g

Q: For `CCCC[C@H](NC(=O)CN1CCC(NC(=O)CN2CCOCCN(CC(=O)O)CCN(CC(=O)O)CCOCCN(CC(=O)O)CC2)CC1)C(=O)N[C@H]1CC(=O)NCCCC[C@@H](C(N)=O)NC(=O)[C@H](Cc2c[nH]c3ccccc23)NC(=O)[C@H](CCCNC(=N)N)NC(=O)[C@@H](Cc2ccccc2)NC(=O)[C@H](Cc2c[nH]cn2)NC1=O` [^213Bi-crown-αMSH, metal not drawn], which “T/Blood (ratio tumor versus blood)” value [2] is on record?
A: 12.15

Q: What about the “T/Bone (ratio tumor versus bone)” value [2] of the same molecule?
A: 23.41

Q: And the “T/Kidney (ratio tumor versus kidney)” value [2]?
A: 0.99

Q: And the “T/Liver (ratio tumor versus liver)” value [2]?
A: 5.44

Q: What about the “T/Muscle (ratio tumor versus muscle)” value [2] of the same molecule?
A: 84.48

Q: And the tissue uptake at 1 h ([3]; Biodistribution: Bladder)?
A: 5.48 %ID/g

Q: What about the tissue uptake at 1 h ([3]; Biodistribution: Blood) of the same molecule?
A: 0.5 %ID/g

Q: And the tissue uptake at 1 h ([3]; Biodistribution: Bone)?
A: 0.41 %ID/g

Q: What about the excreta dose per gram or mL at 1 h ([3]; Biodistribution: Feces) of the same molecule?
A: 0.23 %ID/g

Q: What about the tissue uptake at 1 h ([3]; Biodistribution: Heart) of the same molecule?
A: 0.09 %ID/g

Q: And the tissue uptake at 1 h ([3]; Biodistribution: Kidneys)?
A: 6.02 %ID/g

Q: And the tissue uptake at 1 h ([3]; Biodistribution: Lg Intestine)?
A: 0.56 %ID/g

Q: What about the tissue uptake at 1 h ([3]; Biodistribution: Liver) of the same molecule?
A: 1.09 %ID/g

Q: And the tissue uptake at 1 h ([3]; Biodistribution: Lungs)?
A: 0.45 %ID/g

Q: And the tissue uptake at 1 h ([3]; Biodistribution: Muscle)?
A: 0.08 %ID/g

Q: What about the tissue uptake at 1 h ([3]; Biodistribution: Pancreas) of the same molecule?
A: 0.15 %ID/g

Q: And the tissue uptake at 1 h ([3]; Biodistribution: Sm Intestine)?
A: 0.34 %ID/g

Q: What about the tissue uptake at 1 h ([3]; Biodistribution: Spleen) of the same molecule?
A: 0.36 %ID/g

Q: What about the tissue uptake at 1 h ([3]; Biodistribution: Stomach) of the same molecule?
A: 0.67 %ID/g

Q: And the tissue uptake at 1 h ([3]; Biodistribution: Tail)?
A: 2.56 %ID/g

Q: And the tissue uptake at 1 h ([3]; Biodistribution: Thyroids)?
A: 0.74 %ID/g

Q: What about the tissue uptake at 1 h ([3]; Biodistribution: Tumour) of the same molecule?
A: 5.9 %ID/g

Q: What about the excreta dose per gram or mL at 1 h ([3]; Biodistribution: Urine) of the same molecule?
A: 93.2 %ID/g

Q: With `O=C(O)CN1CCOCCN(CC(=O)O)CCN(CC(=O)O)CCOCCN(CC(=O)O)CC1` [crown, 2,2’,2”,2’”-(1,10-dioxa-4,7,13,16-tetraazacyclooctadecane-4,7,13,16-tetrayl)tetraacetic acid] as the molecule, how does the “free ^225Ac observed” value [4] read?
A: < 2%
